T1: recombinant human BTLA (human, UniProt Q7Z6A9 31-157, limits assumed)
T1 construct: ELISA antigen; construct not described
T1 sequence (looked up): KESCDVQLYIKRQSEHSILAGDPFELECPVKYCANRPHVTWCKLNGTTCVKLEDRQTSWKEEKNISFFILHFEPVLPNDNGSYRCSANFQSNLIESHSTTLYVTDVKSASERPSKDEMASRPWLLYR

T2: cynomolgus BTLA on cells (cynomolgus, UniProt A0A2K5W7M7 31-289)
T2 construct: whole, on cells; Overexpressed on Expi293 cells; also called cyno BTLA; CynoBTLA
T2 sequence: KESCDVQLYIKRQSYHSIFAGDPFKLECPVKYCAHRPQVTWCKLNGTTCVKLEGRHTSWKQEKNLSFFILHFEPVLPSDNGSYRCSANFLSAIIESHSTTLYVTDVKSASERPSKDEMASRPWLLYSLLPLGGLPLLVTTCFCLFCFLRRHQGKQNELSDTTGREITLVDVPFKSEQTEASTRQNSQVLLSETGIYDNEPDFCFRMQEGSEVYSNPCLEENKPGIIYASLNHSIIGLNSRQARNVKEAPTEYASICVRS

B1: HFB6-2hz9-hG4P (antibody, V domains shown)
VH: QVQLVQSGAEVKKPGASVKVSCKASGVNIKDTYMYWVRQAPGQGLEWIGRIDPANGYTRYAQKFQGRATVTADTSTSTVYLELSSLRSEDTAVYYCAVNDGYFEYFDVWGQGTTVTVSS
VL: EIVLTQSPGTLSLSPGERATLSCRSSQSLLDSDGKPYLNWLQQKPGQAPRRLIYLVSKLDSGIPDRFSGSGSGTDFTLTISRLEPEDLAVYYCWQDTHFPRTFGQGTKLEIK
notes: Humanized variant of HFB6-2
B2: HFB6-2hz12-hG4P (antibody, V domains shown)
VH: EVQLLESGGGLVQPGGSLRLSCAASGVNIKDTYMYWVRQAPGKGLEWIGRIDPANGYTRYADSVKGRFTISADNSKNTLYLQMNSLRAEDTAVYYCAVNDGYFEYFDVWGQGTTVTVSS
VL: EIVLTQSPGTLSLSPGERATLSCRSSQSLLDSDGKPYLNWLQQKPGQAPRRLIYLVSKLDSGIPDRFSGSGSGTDFTLTISRLEPEDLAVYYCWQDTHFPRTFGQGTKLEIK
notes: Humanized variant of HFB6-2
B3: HFB6-2hz16-hG4P (antibody, V domains shown)
VH: QVQLVQSGAEVKKPGASVKVSCKASGVNIKDTYMYWVRQAPGQGLEWIGRIDPANGYTRYAQKFQGRATVTADTSTSTVYLELSSLRSEDTAVYYCAVNDGYFEYFDVWGQGTTVTVSS
VL: DIVMTQSPDSLAVSLGERATINCKSSQSLLDSDGKPYLNWLQQKPGQSPKRLIYLVSKLDSGVPDRFSGSGSGTDFTLTISSVQAEDVAVYYCWQDTHFPRTFGQGTKLEIK
notes: Humanized variant of HFB6-2
B4: HFB6-2hz8-hG4P (antibody, V domains shown)
VH: QVQLVQSGAEVKKPGASVKVSCKASGVNIKDTYMYWVRQAPGQGLEWIGRIDPANGYTRYAQKFQGRVTMTADTSTSTVYMELSSLRSEDTAVYYCAVNDGYFEYFDVWGQGTTVTVSS
VL: EIVLTQSPGTLSLSPGERATLSCRSSQSLLDSDGKPYLNWLQQKPGQAPRRLIYLVSKLDSGIPDRFSGSGSGTDFTLTISRLEPEDLAVYYCWQDTHFPRTFGQGTKLEIK
notes: Humanized variant of HFB6-2
B5: HFB6-2hz15-hG4P (antibody, V domains shown)
VH: QVQLVQSGAEVKKPGASVKVSCKASGVNIKDTYMYWVRQAPGQGLEWIGRIDPANGYTRYAQKFQGRVTMTADTSTSTVYMELSSLRSEDTAVYYCAVNDGYFEYFDVWGQGTTVTVSS
VL: DIVMTQSPDSLAVSLGERATINCKSSQSLLDSDGKPYLNWLQQKPGQSPKRLIYLVSKLDSGVPDRFSGSGSGTDFTLTISSVQAEDVAVYYCWQDTHFPRTFGQGTKLEIK
notes: Humanized variant of HFB6-2
B6: HFB6-2hz11-hG4P (antibody, V domains shown)
VH: QVQLVQSGAEVKKPGSSVKVSCKASGVNIKDTYMYWVRQAPGQGLEWIGRIDPANGYARYAQKFQGRATVTADKSTSTAYLELSSLRSEDTAVYYCAVNDGYFEYFDVWGQGTTVTVSS
VL: EIVLTQSPGTLSLSPGERATLSCRSSQSLLDSDGKPYLNWLQQKPGQAPRRLIYLVSKLDSGIPDRFSGSGSGTDFTLTISRLEPEDLAVYYCWQDTHFPRTFGQGTKLEIK
notes: Humanized variant of HFB6-2
B7: HFB6-2hz0-hG4P (antibody, V domains shown)
VH: QVQLVQSGAEVKKPGSSVKVSCKASGVNIKDTYMYWVRQAPGQGLEWIGRIDPANGYARYAQKFQGRATITADESTSTAYLELSSLRSEDTAVYYCAVNDGYFEYFDVWGQGTTVTVSS
VL: EIVLTQSPGTLSLSPGERATLSCRSSQSLLDSDGKPYLNWLQQKPGQAPRRLIYLVSKLDSGIPDRFSGSGSGTDFTLTISRLEPEDLAVYYCWQDTHFPRTFGQGTKLEIK
B8: HFB6-2hz17-hG4P (antibody, V domains shown)
VH: QVQLVQSGAEVKKPGSSVKVSCKASGVNIKDTYMYWVRQAPGQGLEWIGRIDPANGYARYAQKFQGRATITADESTSTAYLELSSLRSEDTAVYYCAVNDGYFEYFDVWGQGTTVTVSS
VL: DIVMTQSPDSLAVSLGERATINCKSSQSLLDSDGKPYLNWLQQKPGQSPKRLIYLVSKLDSGVPDRFSGSGSGTDFTLTISSVQAEDVAVYYCWQDTHFPRTFGQGTKLEIK
notes: Humanized variant of HFB6-2
B9: HFB6-2hz18-hG4P (antibody, V domains shown)
VH: QVQLVQSGAEVKKPGSSVKVSCKASGVNIKDTYMYWVRQAPGQGLEWIGRIDPANGYARYAQKFQGRATVTADKSTSTAYLELSSLRSEDTAVYYCAVNDGYFEYFDVWGQGTTVTVSS
VL: DIVMTQSPDSLAVSLGERATINCKSSQSLLDSDGKPYLNWLQQKPGQSPKRLIYLVSKLDSGVPDRFSGSGSGTDFTLTISSVQAEDVAVYYCWQDTHFPRTFGQGTKLEIK
notes: Humanized variant of HFB6-2
B10: HFB6-2hz19-hG4P (antibody, V domains shown)
VH: EVQLLESGGGLVQPGGSLRLSCAASGVNIKDTYMYWVRQAPGKGLEWIGRIDPANGYTRYADSVKGRFTISADNSKNTLYLQMNSLRAEDTAVYYCAVNDGYFEYFDVWGQGTTVTVSS
VL: DIVMTQSPDSLAVSLGERATINCKSSQSLLDSDGKPYLNWLQQKPGQSPKRLIYLVSKLDSGVPDRFSGSGSGTDFTLTISSVQAEDVAVYYCWQDTHFPRTFGQGTKLEIK
notes: Humanized variant of HFB6-2
B11: HFB6-3hz24-hG4P-C109A (antibody, V domains shown)
VH: QVQLQESGPGLVKPSGTLSLTCADSGFNIKDTYIHWVRQPPGKGLEWIGRIDPANGFTRYNPSLKSRVTISSDKSKNQASLKLSSVTAADTAVYYCAREDGYPYYTLDAWGQGTTVTVSS
VL: DIVMTQSPDSLALSLGERATINCKSSQSLLDVDGKTYLNWFQQKPGQPPKRLIYLVSKLDSGVPDRFSGSGSGTDFTLTISSVQAEDVAVYYCWQGTHFPRTFGQGTKLEIK
notes: Humanized variant of HFB6-3
B12: HFB6-2hz20-hG4P (antibody, V domains shown)
VH: QVQLQESGPGLVKPSGTLSLTCAASGVNIKDTYMYWVRQPPGKGLEWIGRIDPANGYTRYNPSFKSRATVSADKSKNQASLKLSSLTAADTAVYYCAVNDGYFEYFDVWGQGTTVTVSS
VL: DIVMTQSPDSLAVSLGERATINCKSSQSLLDSDGKPYLNWLQQKPGQSPKRLIYLVSKLDSGVPDRFSGSGSGTDFTLTISSVQAEDVAVYYCWQDTHFPRTFGQGTKLEIK
notes: Humanized variant of HFB6-2
B13: HFB6-3hz25-hG4P-C109A (antibody, V domains shown)
VH: QVQLQESGPGLVKPSGTLSLTCADSGFSISDTYIHWVRQPPGKGLEWIGRIDPANGFTRYNPSLKSRVTISSDKSKNQASLKLSSVTAADTAVYYCAREDGYPYYTLDAWGQGTTVTVSS
VL: DIVMTQSPDSLALSLGERATINCKSSQSLLDVDGKTYLNWFQQKPGQPPKRLIYLVSKLDSGVPDRFSGSGSGTDFTLTISSVQAEDVAVYYCWQGTHFPRTFGQGTKLEIK
notes: Humanized variant of HFB6-3
B14: HFB6-3hz24-hG4P-C109S (antibody, V domains shown)
VH: QVQLQESGPGLVKPSGTLSLTCADSGFNIKDTYIHWVRQPPGKGLEWIGRIDPANGFTRYNPSLKSRVTISSDKSKNQASLKLSSVTAADTAVYYCAREDGYPYYTLDSWGQGTTVTVSS
VL: DIVMTQSPDSLALSLGERATINCKSSQSLLDVDGKTYLNWFQQKPGQPPKRLIYLVSKLDSGVPDRFSGSGSGTDFTLTISSVQAEDVAVYYCWQGTHFPRTFGQGTKLEIK
notes: Humanized variant of HFB6-3
B15: HFB6-3hz20-hG4P (antibody, V domains shown)
VH: QVQLQESGPGLVKPSGTLSLTCADSGFNIKDTYIHWVRQPPGKGLEWIGRIDPANGFTRYNPSFKSRATISSDKSKNQASLKLSSVTAADTAVYYCAREDGYPYYTLDCWGQGTTVTVSS
VL: DIVMTQSPDSLALSLGERATINCKSSQSLLDVDGKTYLNWFQQKPGQPPKRLIYLVSKLDSGVPDRFSGSGSGTDFTLTISSVQAEDVAVYYCWQGTHFPRTFGQGTKLEIK
notes: Humanized variant of HFB6-3

Legend:
recombinant human BTLA = target: T1, recombinant human BTLA; experiment: ELISA on recombinant human BTLA
[1] = target: T3, human BTLA (B- and T-lymphocyte attenuator) on cells (human, UniProt Q7Z6A9 31-289); experiment: cell-based or functional assay
[2] = target: T3, human BTLA (B- and T-lymphocyte …); experiment: cell-based or functional assay; remark: listed apart in the source
[3] = target: T3, human BTLA (B- and T-lymphocyte …); experiment: FACS on HEK293T.hBTLA cells, AF647 anti-human IgG Fc detection
Method: (§1) In FIGS. 11A and 11B, HEK293 overexpressing human BTLA (FIG. 11A) and Expi293 cells overexpressing cynomolgus BTLA (FIG. 11B) were incubated with different concentrations of selected HFB6-3 humanized variants with cysteine mutations. Anti-BTLA antibodies binding to target cells were quantified with an AF647-conjugated anti-human IgG Fc 2nd antibody by FACS. HFB6-3hz24-hG4P-C109A, HFB6-3hz25-hG4P-C109A, HFB6-3hz24-hG4P-C109S and HFB6-3hz25-hG4P-C109S bound to human BTLA and cyno BTLA with single digit nM and sub-nM EC₅₀, similar as parental HFB6-3 (FIGS. 11A and 11B and Table 13).

cynomolgus BTLA on cells = target: T2, cynomolgus BTLA on cells; experiment: FACS on Expi293.cynoBTLA cells, AF647 anti-human IgG Fc detection
Method: as §1

[4] = target: T3, human BTLA (B- and T-lymphocyte …); experiment: FACS competition on HEK293T.hBTLA cells; competitor hrHVEM-His-DL650
Method: In FIG. 12A, recombinant HVEM soluble protein was conjugated with DyLight 650 (DL650) fluorophore. HEK293 cells overexpressing hBTLA (HEK293.BTLA) were preincubated with increasing concentrations of selected HFB6-3 humanized variants with cysteine mutants or parental HFB6-3 at 4° C. for 30 minutes and then with DL650-conjugated HVEM for additional 30 minutes. After washing, soluble HVEM remaining associated with BTLA on HEK293.BTLA cells was measured by FACS.

Binder | EC50 (recombinant human BTLA) [nM] | Reporter EC50 [1] [nM] | CHO.TCRa.hHVEM/Jurkat.hBTLA.NFAT-luc (EC50 (nM)) [2] [nM] | EC50 [3] [nM] | EC50 (cynomolgus BTLA on cells) [nM] | IC50 [4] [nM]
B1 | 3.29 | 36.7 |  |  |  | 
B2 | 5.05 | 43.2 |  |  |  | 
B3 | 2.39 | 10.8 |  |  |  | 
B4 | 3.96 | 66.8 |  |  |  | 
B5 | 2.74 | 19.6 |  |  |  | 
B6 | 3.66 | 19.4 |  |  |  | 
B7 | 3.21 | 47 |  |  |  | 
B8 | 2.4 | 18.2 |  |  |  | 
B9 | 2.24 | 10.8 |  |  |  | 
B10 | 2.55 | 22.1 |  |  |  | 
B11 |  |  | 13 | 3.27 | 6.89 | 2.64
B12 | 2.51 | 9.77 |  |  |  | 
B13 |  |  | 10.2 | 3.2 | 9.69 | 2.61
B14 |  |  | 16.6 | 3.6 | 7.83 | 3.22
B15 |  |  |  | 3.84 | 7.38 | 2.91

Reference: patent publication US20250304693A1 (HIFIBIO, published 2025)
